This passage reports stoichiometry N and stoichiometry N (ACE2-PD per S trimer) results from PMC10304477.

As a reminder, the stoichiometry N is a count of units in the complex or per binding partner.

Experiment [1] has as its target extracellular domain of the S protein of SARS-CoV-2 Omicron BA.1 (BA.1-S) (SARS-CoV-2 Omicron BA.1). In words: cryo-EM structure.
The target in experiment [2] is extracellular domain of the S protein of SARS-CoV-2 Omicron BA.3 (BA.3-S) (SARS-CoV-2 Omicron BA.3). Kind of experiment: cryo-EM structure.

In turn, “extracellular domain of the S protein of SARS-CoV-2 Omicron BA.1 (BA.1-S) (domain or fragment)” yielded a stoichiometry N in experiment [1] of 3.

In experiment [2], “extracellular domain of the S protein of SARS-CoV-2 Omicron BA.3 (BA.3-S) (domain or fragment)” came in with a stoichiometry N of 3.

In experiment [1], “peptidase domain (PD) of human ACE2 (from UniProt Q9BYF1 19-615) (domain or fragment)” displayed a stoichiometry N (ACE2-PD per S trimer) of 2.
